Assay results published in patent publication US20130172283A1, “LYOPHILIZED FORMULATION OF PECTIN-ADRIAMYCIN CONJUGATE AND PREPARATION METHOD THEREOF” (CHONGQING LUMMY PHARMACEUTICAL CO., LTD., priority 2010, published 2013).

Columns and labels:
solubility tests of PAC = format: physicochemical; settings: repeated solubility tests
From the text: Insoluble drugs have two major problems in clinical application, one problem is low bioavailability due to low solubility of the drugs, and the other problem is that conventional formulation methods have certain restriction on application of the insoluble drugs.

[1] = monitoring of drug loading rate in long-term storage (UV absorbance at 480 nm); format: physicochemical; settings: initial, bulk drug
Procedure: 10.7 mg adriamycin hydrochloride was precisely weighed and placed in a 100 mL volumetric flask, diluted with sterile water for injection to volume as stock solution, and underwent ultrasonic treatment for 5 min for even mixing; 0.2 ml, 0.4 ml, 0.8 ml, 1.2 ml, 1.6 ml and 2 ml adriamycin hydrochloride stock solution were pipetted and placed in 5 ml volumetric flasks respectively, diluted with sterile water for injection to volume, and shook up. Using ultraviolet spectrophotometry, absorbance A values of adriamycin solution were determined at the series of concentration gradients at 480 nm, and linear regression was performed by taking absorbance A as a vertical coordinate and mass concentration C (mg·mL-1) of adriamycin as horizontal coordinate to obtain an equation: A=0.0178C+0.0284, R2=0.9994 (n=3).
1 mL PAC nanosuspension (prepared according to a preferable solution) was precisely pipetted and placed in a 50 mL volumetric flask (concentration of the PAC nanosuspension was 7.76 mg/mL), diluted with sterile water for injection to volume and shook up, and then proper amount was pipetted to determine absorbance at 480 nm so as to obtain adriamycin concentration Cx with the standard curve. Drug loading rate of the PAC=(Cx/7.76)*100%. […]

Substance: pectin-adriamycin conjugate [PAC]
- solubility (solubility tests of PAC): insoluble
- drug loading rate [1]: 25.8%
